This is an account of results in PMC9371974 (Nature Structural & Molecular Biology, 2022).

One may read the Kd as the free concentration of one partner at which half of the binding sites on the other are occupied at equilibrium, for simple one-to-one binding. As a reminder, the koff is a measure of how fast the partners let go of each other. The kon is a measure of how fast the partners come together.

Conditions in all cases: both partners purified
In test [1] the target is recombinant mouse prion protein immobilised for SPR (mPrP) (Mus musculus, UniProt P04925). Nature of the test: SPR. On the technique in general: Surface plasmon resonance follows binding to a sensor surface in real time, without labels.
The target of test [2] is mPrP immobilized on the SPR sensor chip (rmPrP) (Mus musculus, UniProt P04925). Nature of the test: SPR.
Test [3] addresses full-length, recombinant mouse prion protein (rmPrP23-231) (Mus musculus, UniProt P04925). Briefly: FRET or BRET. Background: Bioluminescence resonance energy transfer reports proximity on the nanometre scale.

full-length, recombinant mouse prion protein (rmPrP23-231), sequence (P04925 23-231): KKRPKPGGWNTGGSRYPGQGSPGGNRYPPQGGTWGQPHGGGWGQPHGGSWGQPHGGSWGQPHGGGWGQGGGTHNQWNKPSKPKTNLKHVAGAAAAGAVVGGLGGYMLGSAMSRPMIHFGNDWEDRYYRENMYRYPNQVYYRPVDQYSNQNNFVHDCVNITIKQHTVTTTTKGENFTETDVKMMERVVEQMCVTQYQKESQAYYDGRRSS
mPrP immobilized on the SPR sensor chip (rmPrP), sequence (P04925 23-230): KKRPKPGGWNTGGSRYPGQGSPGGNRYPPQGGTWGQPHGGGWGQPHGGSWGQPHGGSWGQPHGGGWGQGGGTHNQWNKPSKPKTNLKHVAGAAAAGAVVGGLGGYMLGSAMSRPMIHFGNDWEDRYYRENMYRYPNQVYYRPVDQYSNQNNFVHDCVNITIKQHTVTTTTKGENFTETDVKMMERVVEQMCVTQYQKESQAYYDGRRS
recombinant mouse prion protein immobilised for SPR (mPrP), sequence (P04925 23-230): as above

B1: pomolog hcY57A (POM1 scFv, heavy chain Y57A) (scFv, V domains shown)
VH: QVQLQQSGTELVMPGASVKMSCKASGYTFTDYWMHWVKQRPGQGLEWIGSIDPSDSATSHNEKFKGKATLTVDESSSTAYMQLSSLTSEDSAVYFCSRSGYGYYAMEYWGQGTSVTVSS
VL: DIVLTQSPAILSVSPGERVSFSCRASQNIGTSIHWYQQRTNESPRLIIKYASESISGIPSRFSGSGSGTDFTLSINSVESEDIADYYCQQSNTWPYTFGGGTKLELK
As for B1, in test [1], the Kd came out at 406 nM, the off-rate constant (koff) was 0.031 s⁻¹ and the kon is 77000 M⁻¹ s⁻¹.

B2: pomolog lcY96A (POM1 scFv, light chain Y96A) (scFv, V domains shown)
VH: QVQLQQSGTELVMPGASVKMSCKASGYTFTDYWMHWVKQRPGQGLEWIGSIDPSDSYTSHNEKFKGKATLTVDESSSTAYMQLSSLTSEDSAVYFCSRSGYGYYAMEYWGQGTSVTVSS
VL: DIVLTQSPAILSVSPGERVSFSCRASQNIGTSIHWYQQRTNESPRLIIKYASESISGIPSRFSGSGSGTDFTLSINSVESEDIADYYCQQSNTWPATFGGGTKLELK
Consider B2, for which, in test [1], the Kd is 123 nM, the off-rate constant (koff) turned out to be 0.0074 s⁻¹ and the kon came to 62000 M⁻¹ s⁻¹.

B3: POM1 scFv pomolog lcS32A (scFv, V domains shown)
VH: QVQLQQSGTELVMPGASVKMSCKASGYTFTDYWMHWVKQRPGQGLEWIGSIDPSDSYTSHNEKFKGKATLTVDESSSTAYMQLSSLTSEDSAVYFCSRSGYGYYAMEYWGQGTSVTVSS
VL: DIVLTQSPAILSVSPGERVSFSCRASQNIGTAIHWYQQRTNESPRLIIKYASESISGIPSRFSGSGSGTDFTLSINSVESEDIADYYCQQSNTWPYTFGGGTKLELK
B3: the Kd in test [2] turned out to be 9.98 nM; in test [3], 7.3 nM.

B4: POM1 scFv pomolog hcY101A (scFv, V domains shown)
VH: QVQLQQSGTELVMPGASVKMSCKASGYTFTDYWMHWVKQRPGQGLEWIGSIDPSDSYTSHNEKFKGKATLTVDESSSTAYMQLSSLTSEDSAVYFCSRSGAGYYAMEYWGQGTSVTVSS
VL: DIVLTQSPAILSVSPGERVSFSCRASQNIGTSIHWYQQRTNESPRLIIKYASESISGIPSRFSGSGSGTDFTLSINSVESEDIADYYCQQSNTWPYTFGGGTKLELK
Regarding B4, the dissociation constant (Kd) in test [2] was determined as 11.5 nM; in test [3], 1.5 nM.

B5: POM1 scFv pomolog lcY96A (scFv, V domains shown)
VH: QVQLQQSGTELVMPGASVKMSCKASGYTFTDYWMHWVKQRPGQGLEWIGSIDPSDSYTSHNEKFKGKATLTVDESSSTAYMQLSSLTSEDSAVYFCSRSGYGYYAMEYWGQGTSVTVSS
VL: DIVLTQSPAILSVSPGERVSFSCRASQNIGTSIHWYQQRTNESPRLIIKYASESISGIPSRFSGSGSGTDFTLSINSVESEDIADYYCQQSNTWPATFGGGTKLELK
With B5, the values for the Kd in test [2] and in test [3] were 123 nM and 138 nM, respectively.

B6: pomolog hcY104A (POM1 scFv, heavy chain Y104A) (scFv, V domains shown)
VH: QVQLQQSGTELVMPGASVKMSCKASGYTFTDYWMHWVKQRPGQGLEWIGSIDPSDSYTSHNEKFKGKATLTVDESSSTAYMQLSSLTSEDSAVYFCSRSGYGYAAMEYWGQGTSVTVSS
VL: DIVLTQSPAILSVSPGERVSFSCRASQNIGTSIHWYQQRTNESPRLIIKYASESISGIPSRFSGSGSGTDFTLSINSVESEDIADYYCQQSNTWPYTFGGGTKLELK
For the molecule B6, in test [1], the Kd is 8.8 nM, the off-rate constant (koff) was 0.00021 s⁻¹ and the kon came to 36000 M⁻¹ s⁻¹.

B7: pomolog lcS91A (POM1 scFv, light chain S91A) (scFv, V domains shown)
VH: QVQLQQSGTELVMPGASVKMSCKASGYTFTDYWMHWVKQRPGQGLEWIGSIDPSDSYTSHNEKFKGKATLTVDESSSTAYMQLSSLTSEDSAVYFCSRSGYGYYAMEYWGQGTSVTVSS
VL: DIVLTQSPAILSVSPGERVSFSCRASQNIGTSIHWYQQRTNESPRLIIKYASESISGIPSRFSGSGSGTDFTLSINSVESEDIADYYCQQANTWPYTFGGGTKLELK
Take B7: in test [1], the Kd was 1430 nM, the off-rate constant (koff) was determined as 0.018 s⁻¹ and the on-rate (kon) was determined as 13000 M⁻¹ s⁻¹.

B8: pomolog hcD55A (POM1 scFv, heavy chain D55A) (scFv, V domains shown)
VH: QVQLQQSGTELVMPGASVKMSCKASGYTFTDYWMHWVKQRPGQGLEWIGSIDPSASYTSHNEKFKGKATLTVDESSSTAYMQLSSLTSEDSAVYFCSRSGYGYYAMEYWGQGTSVTVSS
VL: DIVLTQSPAILSVSPGERVSFSCRASQNIGTSIHWYQQRTNESPRLIIKYASESISGIPSRFSGSGSGTDFTLSINSVESEDIADYYCQQSNTWPYTFGGGTKLELK
In the case of B8, in test [1], the Kd was determined as 372 nM, the koff stood at 0.037 s⁻¹ and the kon was 100000 M⁻¹ s⁻¹.

B9: POM1 scFv pomolog lcW94A (scFv, V domains shown)
VH: QVQLQQSGTELVMPGASVKMSCKASGYTFTDYWMHWVKQRPGQGLEWIGSIDPSDSYTSHNEKFKGKATLTVDESSSTAYMQLSSLTSEDSAVYFCSRSGYGYYAMEYWGQGTSVTVSS
VL: DIVLTQSPAILSVSPGERVSFSCRASQNIGTSIHWYQQRTNESPRLIIKYASESISGIPSRFSGSGSGTDFTLSINSVESEDIADYYCQQSNTAPYTFGGGTKLELK
As to B9, the Kd in test [2] was determined as 201 nM; in test [3], 73.1 nM.

B10: POM1 scFv pomolog hcY104A (scFv, V domains shown)
VH: QVQLQQSGTELVMPGASVKMSCKASGYTFTDYWMHWVKQRPGQGLEWIGSIDPSDSYTSHNEKFKGKATLTVDESSSTAYMQLSSLTSEDSAVYFCSRSGYGYAAMEYWGQGTSVTVSS
VL: DIVLTQSPAILSVSPGERVSFSCRASQNIGTSIHWYQQRTNESPRLIIKYASESISGIPSRFSGSGSGTDFTLSINSVESEDIADYYCQQSNTWPYTFGGGTKLELK
Turning to B10, the results for the Kd in test [2] and in test [3] were 8.79 nM and 26 nM, respectively.

B11: pomolog lcY50A (POM1 scFv, light chain Y50A) (scFv, V domains shown)
VH: QVQLQQSGTELVMPGASVKMSCKASGYTFTDYWMHWVKQRPGQGLEWIGSIDPSDSYTSHNEKFKGKATLTVDESSSTAYMQLSSLTSEDSAVYFCSRSGYGYYAMEYWGQGTSVTVSS
VL: DIVLTQSPAILSVSPGERVSFSCRASQNIGTSIHWYQQRTNESPRLIIKAASESISGIPSRFSGSGSGTDFTLSINSVESEDIADYYCQQSNTWPYTFGGGTKLELK
Consider B11, for which, in test [1], the Kd stood at 313 nM, the koff is 0.0082 s⁻¹ and the on-rate constant (kon) turned out to be 57000 M⁻¹ s⁻¹.

B12: pomolog lcW94A (POM1 scFv, light chain W94A) (scFv, V domains shown)
VH: QVQLQQSGTELVMPGASVKMSCKASGYTFTDYWMHWVKQRPGQGLEWIGSIDPSDSYTSHNEKFKGKATLTVDESSSTAYMQLSSLTSEDSAVYFCSRSGYGYYAMEYWGQGTSVTVSS
VL: DIVLTQSPAILSVSPGERVSFSCRASQNIGTSIHWYQQRTNESPRLIIKYASESISGIPSRFSGSGSGTDFTLSINSVESEDIADYYCQQSNTAPYTFGGGTKLELK
B12: in test [1], the dissociation constant (Kd) stood at 201 nM, the dissociation rate constant (koff) turned out to be 0.027 s⁻¹ and the kon is 310000 M⁻¹ s⁻¹.

B13: POM1 scFv pomolog hcD55A (scFv, V domains shown)
VH: QVQLQQSGTELVMPGASVKMSCKASGYTFTDYWMHWVKQRPGQGLEWIGSIDPSASYTSHNEKFKGKATLTVDESSSTAYMQLSSLTSEDSAVYFCSRSGYGYYAMEYWGQGTSVTVSS
VL: DIVLTQSPAILSVSPGERVSFSCRASQNIGTSIHWYQQRTNESPRLIIKYASESISGIPSRFSGSGSGTDFTLSINSVESEDIADYYCQQSNTWPYTFGGGTKLELK
As for B13, the Kd worked out at 372 nM in test [2] and 110 nM in test [3].

B14: pomolog hcY101A (POM1 scFv, heavy chain Y101A) (scFv, V domains shown)
VH: QVQLQQSGTELVMPGASVKMSCKASGYTFTDYWMHWVKQRPGQGLEWIGSIDPSDSYTSHNEKFKGKATLTVDESSSTAYMQLSSLTSEDSAVYFCSRSGAGYYAMEYWGQGTSVTVSS
VL: DIVLTQSPAILSVSPGERVSFSCRASQNIGTSIHWYQQRTNESPRLIIKYASESISGIPSRFSGSGSGTDFTLSINSVESEDIADYYCQQSNTWPYTFGGGTKLELK
As to B14, in test [1], the dissociation constant (Kd) is 11 nM, the koff came out at 0.00071 s⁻¹ and the association rate constant (kon) is 63000 M⁻¹ s⁻¹.

B15: POM1 scFv pomolog hcY57A (scFv, V domains shown)
VH: QVQLQQSGTELVMPGASVKMSCKASGYTFTDYWMHWVKQRPGQGLEWIGSIDPSDSATSHNEKFKGKATLTVDESSSTAYMQLSSLTSEDSAVYFCSRSGYGYYAMEYWGQGTSVTVSS
VL: DIVLTQSPAILSVSPGERVSFSCRASQNIGTSIHWYQQRTNESPRLIIKYASESISGIPSRFSGSGSGTDFTLSINSVESEDIADYYCQQSNTWPYTFGGGTKLELK
Regarding B15, the Kd in test [2] amounted to 406 nM; in test [3] it was 225 nM.

B16: pomolog hcD52A (POM1 scFv, heavy chain D52A) (scFv, V domains shown)
VH: QVQLQQSGTELVMPGASVKMSCKASGYTFTDYWMHWVKQRPGQGLEWIGSIAPSDSYTSHNEKFKGKATLTVDESSSTAYMQLSSLTSEDSAVYFCSRSGYGYYAMEYWGQGTSVTVSS
VL: DIVLTQSPAILSVSPGERVSFSCRASQNIGTSIHWYQQRTNESPRLIIKYASESISGIPSRFSGSGSGTDFTLSINSVESEDIADYYCQQSNTWPYTFGGGTKLELK
As for B16, in test [1], the Kd was 103 nM, the koff worked out at 0.046 s⁻¹ and the on-rate constant (kon) was determined as 330000 M⁻¹ s⁻¹.

B17: pomolog lcS32A (POM1 scFv, light chain S32A) (scFv, V domains shown)
VH: QVQLQQSGTELVMPGASVKMSCKASGYTFTDYWMHWVKQRPGQGLEWIGSIDPSDSYTSHNEKFKGKATLTVDESSSTAYMQLSSLTSEDSAVYFCSRSGYGYYAMEYWGQGTSVTVSS
VL: DIVLTQSPAILSVSPGERVSFSCRASQNIGTAIHWYQQRTNESPRLIIKYASESISGIPSRFSGSGSGTDFTLSINSVESEDIADYYCQQSNTWPYTFGGGTKLELK
With B17, in test [1], the Kd is 10 nM, the koff amounted to 0.00059 s⁻¹ and the association rate constant (kon) came out at 64000 M⁻¹ s⁻¹.

B18: POM1 scFv pomolog lcS91A (scFv, V domains shown)
VH: QVQLQQSGTELVMPGASVKMSCKASGYTFTDYWMHWVKQRPGQGLEWIGSIDPSDSYTSHNEKFKGKATLTVDESSSTAYMQLSSLTSEDSAVYFCSRSGYGYYAMEYWGQGTSVTVSS
VL: DIVLTQSPAILSVSPGERVSFSCRASQNIGTSIHWYQQRTNESPRLIIKYASESISGIPSRFSGSGSGTDFTLSINSVESEDIADYYCQQANTWPYTFGGGTKLELK
B18: the Kd was 1430 nM in test [2] and 92.3 nM in test [3].

B19: POM1 scFv pomolog lcY50A (scFv, V domains shown)
VH: QVQLQQSGTELVMPGASVKMSCKASGYTFTDYWMHWVKQRPGQGLEWIGSIDPSDSYTSHNEKFKGKATLTVDESSSTAYMQLSSLTSEDSAVYFCSRSGYGYYAMEYWGQGTSVTVSS
VL: DIVLTQSPAILSVSPGERVSFSCRASQNIGTSIHWYQQRTNESPRLIIKAASESISGIPSRFSGSGSGTDFTLSINSVESEDIADYYCQQSNTWPYTFGGGTKLELK
As for B19, the figures for the Kd in test [2] and in test [3] were 313 nM and 63.4 nM, respectively.
